{"source": "paper PMC1929070", "biological_target": "GST-XNRL (Xenopus laevis)", "assay": "pull-down; Glutathione-Sepharose-bound GST-XNRL (or GST alone) incubated with affinity purified MYC fusion proteins in binding buffer (0.1% Triton X-100, 50 mM HEPES pH 7.5, 150 mM NaCl, 1% glycerol, 1.5 mM MgCl2, 5 mM EGTA) overnight at 4°C, washed three times; anti-MYC Western blot, bands quantified by Image J (retained/input, normalised to MYC-XOTX2); two independent experiments"}
{"substance": "MYC-XOTX5b (natural protein)", "values": [{"measurement": "fold binding relative to MYC-XOTX2 (retained/input ratio)", "value": 2.4, "unit": "fold"}]}
